Laboratory results reported in the supplement of paper PMC7877785.
± gives the uncertainty stated by the source.

Assay: self-splicing fitness, log relative to wild type (ln ratio); higher = more splicing; Tetrahymena group I intron in knt gene, E. coli kanamycin selection, DiMSum; sequences stand for … in CUCUCU…GGAGGGAAAAGUUAUCAGGCAUGCACCUGGUAGCUAGUCUUUAAACCAAUAGAUUGCAUCGGUUUAAAAGGCAAGACCGUCAAAUUGCGGGAAAGGGGUCAACAGCCGUUCAGUACCAAGUCUCAGGGGAAACUUUGAGAUGGCCUUGCAAAGGGUAUGGUAAUAAGCUGACGGACAUGGUCCUAACCACGCAGCCAAGUCCUAAGUCAACAGAUCUUCUGUUGAUAUGGAUGCAGUUCACAGACUAAAUGUCGGUCGGGGAAGAUGUAUUCUUCUCAUAAGAUAUAGUCGGACCUCUCCUUAAUGGGAGCUAGCGGAUGAAGUGAUGCAACACUGGAGCCGCUGGGAACUAAUUUGUAUGCGAAAGUAUAUUGAUUAGUUUUGGAGUACUCGUGGUCG
Summary of the method: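 A randomised library covering all eight P1ex-region intron nucleotides was built with the intron in the knt kanamycin-resistance gene on pET-22b(+) and held in E. coli BL21(DE3). Cells were grown overnight at 37°C or 30°C on LB agar, with or without 25 μg/mL kanamycin, plus 100 μg/mL carbenicillin, 50 μM IPTG and 0.2% rhamnose, and pooled colonies were amplicon-sequenced on an Illumina HiSeq 2500. DiMSum fitness is the error-weighted combination of wild-type-normalised replicate fold changes, kanamycin versus none.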

Row | Sequence | self-splicing fitness (ln) (30 °C) | self-splicing fitness (ln) (37 °C)
1 | GCAUAGCAAUAUUACGCAGG | -2.58 ± 0.21 | -1.35 ± 0.22
2 | AUAAAGCAAUAUUACGGCAC | -0.531 ± 0.073 | -0.1 ± 0.11
3 | GGGAAGCAAUAUUACGAUGU | -1.02 ± 0.083 | -0.0643 ± 0.1
4 | UUACAGCAAUAUUACGCUGU | -3.49 ± 0.27 | -2.37 ± 0.34
5 | GUUCAGCAAUAUUACGGCAU | -0.334 ± 0.067 | 0.567 ± 0.072
6 | GCGAAGCAAUAUUACGUCAC |  | -2.82 ± 0.3
7 | UGUGAGCAAUAUUACGAGUC | -2.67 ± 0.27 | 
8 | AGAUAGCAAUAUUACGAGUG | -2.72 ± 0.15 | -1.22 ± 0.14
9 | AAGUAGCAAUAUUACGCAAA |  | -1.34 ± 0.31
10 | GGGGAGCAAUAUUACGUACA | -1.75 ± 0.2 | -1.76 ± 0.49
11 | AUGAAGCAAUAUUACGGGGG | -3.12 ± 0.24 | -2.49 ± 0.28
12 | UGAUAGCAAUAUUACGGGUA | -1.74 ± 0.12 | -1.81 ± 0.14
13 | AAAGAGCAAUAUUACGUUGA | -2.75 ± 0.21 | -2.28 ± 0.26
14 | CAGUAGCAAUAUUACGAUUU | -2.52 ± 0.19 | -1.45 ± 0.17
15 | GCGAAGCAAUAUUACGCGCC |  | -1.73 ± 0.4
16 | GCGCAGCAAUAUUACGGACA | -1.45 ± 0.085 | -0.514 ± 0.089
17 | UGGAAGCAAUAUUACGGAGU | -3.51 ± 0.22 | -2.75 ± 0.22
18 | UCACAGCAAUAUUACGGCCC | -3.44 ± 0.45 | -1.82 ± 0.44
19 | UAGAAGCAAUAUUACGUGUA | -1.95 ± 0.11 | -0.392 ± 0.09
20 | CCCGAGCAAUAUUACGAACG |  | -1.84 ± 0.44
21 | GACGAGCAAUAUUACGCCUU | -3.3 ± 0.4 | -1.48 ± 0.24
22 | GACCAGCAAUAUUACGUGAC | -1.27 ± 0.069 | -1.7 ± 0.11
23 | ACCUAGCAAUAUUACGCAAG | -2.73 ± 0.15 | -2.2 ± 0.18
24 | GAAUAGCAAUAUUACGAAUC | -2.32 ± 0.14 | -0.98 ± 0.14
25 | UGUCAGCAAUAUUACGCCAU | -1.79 ± 0.18 | -1.98 ± 0.16

Row | Sequence | self-splicing fitness (ln) (30 °C) | self-splicing fitness (ln) (37 °C)
26 | UACAAGCAAUAUUACGACAC | -3.15 ± 0.18 | -1.38 ± 0.15
27 | UCUUAGCAAUAUUACGGGUA | -1.46 ± 0.076 | -0.741 ± 0.084
28 | CCACAGCAAUAUUACGGCCA | -3.79 ± 0.29 | -2.75 ± 0.27
29 | AGAGAGCAAUAUUACGUAUG | -4.21 ± 0.24 | -3.33 ± 0.27
30 | AAGUAGCAAUAUUACGAUUU | 0.429 ± 0.06 | 0.104 ± 0.075
31 | UCCAAGCAAUAUUACGGGAC | -3.59 ± 0.25 | -1.24 ± 0.21
32 | GACUAGCAAUAUUACGAGCC | -1.28 ± 0.17 | -0.877 ± 0.26
33 | CGAUAGCAAUAUUACGCCUU | -2.23 ± 0.17 | -2.24 ± 0.17
34 | AGAGAGCAAUAUUACGUCGU | -3.77 ± 0.32 | -1.78 ± 0.22
35 | CCGUAGCAAUAUUACGGCCG | -1.05 ± 0.16 | -0.466 ± 0.18
36 | UUCUAGCAAUAUUACGAUGU | -3.53 ± 0.42 | -1.66 ± 0.2
37 | CGCAAGCAAUAUUACGCACC | -1.54 ± 0.29 | -0.0713 ± 0.4
38 | AUUGAGCAAUAUUACGCCUU | -2.26 ± 0.39 | -1.89 ± 0.3
39 | GGGGAGCAAUAUUACGGGGC | -2.92 ± 0.37 | -2.2 ± 0.27
40 | AAUCAGCAAUAUUACGGAGA | -0.814 ± 0.085 | -1.04 ± 0.1
41 | UAGCAGCAAUAUUACGCUUC | -3.05 ± 0.34 | -2.25 ± 0.33
42 | CCAAAGCAAUAUUACGCGUA | -4.41 ± 0.34 | -3.75 ± 0.32
43 | GGGCAGCAAUAUUACGAUAG | -3.54 ± 0.2 | -2.43 ± 0.22
44 | AGGAAGCAAUAUUACGGGCC | -3.5 ± 0.42 | -0.18 ± 0.2
45 | GCGUAGCAAUAUUACGGGUC | -3.34 ± 0.29 | -1.54 ± 0.21
46 | UUCCAGCAAUAUUACGUCAU | -3.65 ± 0.2 | -2.72 ± 0.2
47 | UAAAAGCAAUAUUACGUUCA | -0.437 ± 0.083 | -0.259 ± 0.091
48 | AGUCAGCAAUAUUACGCAUG | -2.04 ± 0.14 | -1.12 ± 0.13
49 | UAGUAGCAAUAUUACGCUUU | -2.3 ± 0.25 | -2.18 ± 0.18
50 | UCGGAGCAAUAUUACGCUUU |  | -2.3 ± 0.49

Row | Sequence | self-splicing fitness (ln) (30 °C) | self-splicing fitness (ln) (37 °C)
51 | ACAUAGCAAUAUUACGUUUA | -2.82 ± 0.19 | -1.75 ± 0.14
52 | UCUGAGCAAUAUUACGUUAA | -3.47 ± 0.29 | -0.512 ± 0.15
53 | ACUAAGCAAUAUUACGGUCG | -2.89 ± 0.16 | -1.47 ± 0.15
54 | AACAAGCAAUAUUACGAUCU | -0.25 ± 0.062 | -0.072 ± 0.08
55 | UCCAAGCAAUAUUACGACGG | -0.354 ± 0.076 | 0.164 ± 0.1
56 | UACUAGCAAUAUUACGUUAA | -2.1 ± 0.18 | -1.43 ± 0.18
57 | CCUUAGCAAUAUUACGUGUA | -4.28 ± 0.43 | -1.47 ± 0.15
58 | UCUGAGCAAUAUUACGGAAA | -3.08 ± 0.18 | -1.64 ± 0.15
59 | GCGUAGCAAUAUUACGGAAG | -3.56 ± 0.31 | -1.98 ± 0.33
60 | UAGGAGCAAUAUUACGUGGA | -2.34 ± 0.38 | -1.43 ± 0.22
61 | AUAAAGCAAUAUUACGGGGA | -1.96 ± 0.14 | -1.4 ± 0.18
62 | CCCCAGCAAUAUUACGCAAU | -2.96 ± 0.12 | -1.34 ± 0.12
63 | CGCGAGCAAUAUUACGUAUG | -1.62 ± 0.13 | -1.2 ± 0.19
64 | CAUGAGCAAUAUUACGAUGG | -1.36 ± 0.1 | -0.83 ± 0.13
65 | GAAAAGCAAUAUUACGAGCC | -1.38 ± 0.19 | -0.409 ± 0.18
66 | CCGUAGCAAUAUUACGGGUC | -2.96 ± 0.21 | -2.55 ± 0.2
67 | GGCUAGCAAUAUUACGAUCU | -0.432 ± 0.1 | 0.129 ± 0.12
68 | AGUCAGCAAUAUUACGACGU | 0.702 ± 0.092 | -0.164 ± 0.096
69 | AACCAGCAAUAUUACGUUGU | -2.68 ± 0.077 | -2.38 ± 0.1
70 | CGAAAGCAAUAUUACGCAGU | -3.8 ± 0.22 | -2.69 ± 0.17
71 | AUCUAGCAAUAUUACGGCCA | -1.06 ± 0.12 | -0.879 ± 0.13
72 | CCCAAGCAAUAUUACGGUUG | -3.99 ± 0.17 | -2.52 ± 0.13
73 | GUAUAGCAAUAUUACGGGAC | -2.88 ± 0.34 | -1.07 ± 0.2
74 | CACUAGCAAUAUUACGCUGG | -4.08 ± 0.37 | -1.87 ± 0.22
75 | GUCGAGCAAUAUUACGCCAG |  | -2 ± 0.43

Row | Sequence | self-splicing fitness (ln) (30 °C) | self-splicing fitness (ln) (37 °C)
76 | GUUGAGCAAUAUUACGGCUG | -1.41 ± 0.11 | -0.467 ± 0.14
77 | GAGGAGCAAUAUUACGAGUG | -2.88 ± 0.35 | -2.5 ± 0.23
78 | CCACAGCAAUAUUACGUUGU | -2.37 ± 0.076 | -2.83 ± 0.13
79 | GGCAAGCAAUAUUACGGGCA | -0.0236 ± 0.092 | 0.138 ± 0.1
80 | UGGAAGCAAUAUUACGGUAC | -4.18 ± 0.39 | -1.5 ± 0.25
81 | GUCUAGCAAUAUUACGCUAA | -0.815 ± 0.091 | 0.163 ± 0.093
82 | CUUUAGCAAUAUUACGUACU | -2.22 ± 0.23 | -2.82 ± 0.34
83 | CUCCAGCAAUAUUACGCUCA | -2.97 ± 0.17 | -2.31 ± 0.19
84 | CUAGAGCAAUAUUACGUGGG | -0.857 ± 0.13 | -0.906 ± 0.16
85 | AACGAGCAAUAUUACGUUUU | -3.9 ± 0.14 | -2.79 ± 0.14
86 | UUCCAGCAAUAUUACGCGUA | -0.454 ± 0.087 | 0.0549 ± 0.083
87 | GGUCAGCAAUAUUACGCUAG | -3.43 ± 0.26 | -2.91 ± 0.34
88 | GAACAGCAAUAUUACGCUAG | -1.69 ± 0.098 | -0.109 ± 0.092
89 | CGGCAGCAAUAUUACGCGGG | -2.12 ± 0.12 | -1.42 ± 0.13
90 | AAUAAGCAAUAUUACGGUAC | -2.68 ± 0.21 | -1.79 ± 0.14
91 | UCGCAGCAAUAUUACGAAAC |  | -3.1 ± 0.35
92 | CCAUAGCAAUAUUACGUUUA | -3.25 ± 0.23 | -2.68 ± 0.25
93 | AUGAAGCAAUAUUACGGAAG | -1.17 ± 0.1 | -0.408 ± 0.16
94 | UGCAAGCAAUAUUACGUAGU | -3.83 ± 0.18 | -2.42 ± 0.17
95 | AAGUAGCAAUAUUACGACAG | -2.86 ± 0.18 | -1.66 ± 0.21
96 | GCUAAGCAAUAUUACGUGAA | -0.92 ± 0.059 | -0.304 ± 0.074
97 | UGCCAGCAAUAUUACGUAGG | -3.34 ± 0.25 | -0.145 ± 0.17
